What was measured:
UbcH7-Ub = UbcH7-Ub (UniProt P68036); assay: ITC; E2 or E2~Ub in the cell at 25–30 μM, RBR in the syringe at 250–300 μM; 293 K; 25 mM Hepes pH 7.5, 150 mM NaCl, 0.5 mM TCEP; 1:1 binding model
UbcH7 = UbcH7 (UniProt P68036); assay: as above
UbcH5A-Ub = UbcH5A-Ub (UniProt P51668); assay: as above
UbcH5B (Homo sapiens) = UbcH5B (Homo sapiens) (UniProt P62837); settings: cited from earlier work
UbcH5B (Homo sapiens), sequence (P62837 whole entry): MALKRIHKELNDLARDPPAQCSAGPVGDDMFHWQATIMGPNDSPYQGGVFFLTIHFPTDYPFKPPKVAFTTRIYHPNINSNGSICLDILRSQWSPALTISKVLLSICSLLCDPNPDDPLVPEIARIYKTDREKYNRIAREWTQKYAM

HOIP-Ring1, sequence (Q96EP0 whole entry, the tested form may be a part): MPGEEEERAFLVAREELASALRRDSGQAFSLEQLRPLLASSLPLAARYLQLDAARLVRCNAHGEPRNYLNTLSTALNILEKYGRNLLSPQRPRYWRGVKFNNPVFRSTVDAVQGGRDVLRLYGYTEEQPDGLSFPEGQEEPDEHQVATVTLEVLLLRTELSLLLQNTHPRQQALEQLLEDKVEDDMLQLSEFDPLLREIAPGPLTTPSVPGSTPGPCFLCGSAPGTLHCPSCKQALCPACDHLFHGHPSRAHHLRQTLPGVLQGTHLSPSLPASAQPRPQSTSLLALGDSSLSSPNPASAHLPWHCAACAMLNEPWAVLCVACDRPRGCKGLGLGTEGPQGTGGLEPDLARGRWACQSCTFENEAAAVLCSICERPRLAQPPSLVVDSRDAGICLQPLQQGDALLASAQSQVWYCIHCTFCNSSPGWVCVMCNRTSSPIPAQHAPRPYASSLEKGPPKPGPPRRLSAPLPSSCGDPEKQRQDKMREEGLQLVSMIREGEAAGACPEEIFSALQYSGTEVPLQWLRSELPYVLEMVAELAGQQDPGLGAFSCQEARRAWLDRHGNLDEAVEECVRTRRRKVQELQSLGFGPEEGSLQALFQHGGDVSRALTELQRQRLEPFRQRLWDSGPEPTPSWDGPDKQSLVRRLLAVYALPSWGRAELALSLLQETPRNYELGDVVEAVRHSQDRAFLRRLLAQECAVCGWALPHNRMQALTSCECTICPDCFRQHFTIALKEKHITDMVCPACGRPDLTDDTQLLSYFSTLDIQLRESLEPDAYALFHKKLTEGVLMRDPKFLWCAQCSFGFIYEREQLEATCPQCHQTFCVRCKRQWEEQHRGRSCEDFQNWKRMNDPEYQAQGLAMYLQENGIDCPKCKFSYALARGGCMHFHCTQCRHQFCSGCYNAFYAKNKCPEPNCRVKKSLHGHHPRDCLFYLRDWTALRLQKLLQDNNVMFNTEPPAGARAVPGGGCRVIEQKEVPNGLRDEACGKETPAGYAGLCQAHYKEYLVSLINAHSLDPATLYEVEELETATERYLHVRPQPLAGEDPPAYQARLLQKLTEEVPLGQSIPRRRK
HOIP-RBR, sequence (Q96EP0 whole entry, the tested form may be a part): as above
RNF144A-Ring1, sequence (P50876 whole entry, the tested form may be a part): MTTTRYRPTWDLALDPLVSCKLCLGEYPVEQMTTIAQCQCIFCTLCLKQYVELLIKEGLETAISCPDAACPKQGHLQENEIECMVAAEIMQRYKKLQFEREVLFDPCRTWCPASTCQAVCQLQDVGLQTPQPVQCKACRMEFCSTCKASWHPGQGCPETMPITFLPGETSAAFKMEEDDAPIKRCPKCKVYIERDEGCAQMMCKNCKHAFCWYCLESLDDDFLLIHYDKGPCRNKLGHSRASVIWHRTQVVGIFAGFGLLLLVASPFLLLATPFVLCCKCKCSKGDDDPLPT
RNF144A-RBR, sequence (P50876 1-250): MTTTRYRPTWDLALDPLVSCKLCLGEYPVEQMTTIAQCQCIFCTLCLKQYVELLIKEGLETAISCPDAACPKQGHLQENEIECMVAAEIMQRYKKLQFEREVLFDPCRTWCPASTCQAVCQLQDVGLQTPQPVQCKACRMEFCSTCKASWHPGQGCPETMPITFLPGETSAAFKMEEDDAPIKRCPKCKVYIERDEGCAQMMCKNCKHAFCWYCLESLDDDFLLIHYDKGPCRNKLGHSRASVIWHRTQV
HHARI-RBR, sequence (Q9Y4X5 whole entry, the tested form may be a part): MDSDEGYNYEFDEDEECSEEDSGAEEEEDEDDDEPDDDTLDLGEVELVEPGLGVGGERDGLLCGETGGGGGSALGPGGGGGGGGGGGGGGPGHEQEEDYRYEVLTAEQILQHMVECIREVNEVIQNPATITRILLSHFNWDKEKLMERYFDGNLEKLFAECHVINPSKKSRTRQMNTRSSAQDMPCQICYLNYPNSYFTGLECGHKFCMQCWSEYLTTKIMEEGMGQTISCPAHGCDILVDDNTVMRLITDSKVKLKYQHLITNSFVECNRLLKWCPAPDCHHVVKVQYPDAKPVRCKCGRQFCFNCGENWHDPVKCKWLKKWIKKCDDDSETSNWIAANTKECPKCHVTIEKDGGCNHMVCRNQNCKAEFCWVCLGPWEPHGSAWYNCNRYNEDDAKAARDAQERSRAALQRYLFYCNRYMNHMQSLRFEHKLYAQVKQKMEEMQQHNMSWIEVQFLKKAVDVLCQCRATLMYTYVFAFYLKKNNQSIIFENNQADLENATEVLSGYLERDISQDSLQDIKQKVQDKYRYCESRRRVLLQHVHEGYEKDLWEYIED
HHARI-Ring1, sequence (Q9Y4X5 whole entry, the tested form may be a part): as above
HHARI, sequence (Q9Y4X5 whole entry): as the sequence (Q9Y4X5 whole entry, the tested form may be a part) above

| Substance | Kd (UbcH7-Ub) [nM] | dH (UbcH7-Ub) [kcal/mol] | stoichiometry N (UbcH7-Ub) | Kd (UbcH7) [nM] | dH (UbcH7) [kcal/mol] | stoichiometry N (UbcH7) | Kd (UbcH5A-Ub) [nM] | dH (UbcH5A-Ub) [kcal/mol] | stoichiometry N (UbcH5A-Ub) | Kd (UbcH5B (Homo sapiens)) [nM] |
| --- | --- | --- | --- | --- | --- | --- | --- | --- | --- | --- |
| RNF144A-Ring1 (from UniProt P50876 1-292) (domain or fragment) | 1000 | 2.7 | 0.8 | 2200 | 3.5 | 0.8 | > 50000 |  |  |  |
| TRIAD3A-RBR (from UniProt Q9NWF9-2 510-801) (domain or fragment) | 2400 | 3.7 | 0.9 |  |  |  |  |  |  |  |
| HHARI-Ring1 (from UniProt Q9Y4X5 1-557) (domain or fragment) | 120 | 3.9 | 0.8 | 210 | 4.2 | 0.8 | > 50000 |  |  |  |
| TRIAD3A-Ring1 (from UniProt Q9NWF9-2 1-866) (domain or fragment) | 4300 | 3.6 | 0.8 | 3200 | 4.5 | 0.8 | > 50000 |  |  |  |
| HHARI (from UniProt Q9Y4X5) |  |  |  |  |  |  |  |  |  | 20000 |
| HOIP-Ring1 (from UniProt Q96EP0 1-1072) (domain or fragment) | 4300 | 1.1 | 0.9 |  | 1.4 | 1 | > 50000 |  |  |  |

Continued by falling Kd (UbcH7-Ub), values first:

| Kd (UbcH7-Ub) [nM] | dH (UbcH7-Ub) [kcal/mol] | stoichiometry N (UbcH7-Ub) | Kd (UbcH7) [nM] | dH (UbcH7) [kcal/mol] | stoichiometry N (UbcH7) | Kd (UbcH5A-Ub) [nM] | dH (UbcH5A-Ub) [kcal/mol] | stoichiometry N (UbcH5A-Ub) | Substance | Kd (UbcH5B (Homo sapiens)) [nM] |
| --- | --- | --- | --- | --- | --- | --- | --- | --- | --- | --- |
| 900 | 0.8 | 0.9 | 2300 | 0.8 | 0.8 | 4300 | -8.2 | 0.9 | HOIP-RBR (from UniProt Q96EP0 1-1072) (domain or fragment) |  |
| 520 | -0.9 | 0.8 | 1000 | 1.7 | 0.9 |  |  |  | RNF144A-RBR (from UniProt P50876 1-250) (domain or fragment) |  |
| 200 | -2.3 | 0.9 | 410 | 1.8 | 0.9 | 4500 | -3.7 | 0.8 | HHARI-RBR (from UniProt Q9Y4X5 1-557) (domain or fragment) |  |

— publication PMC5758712
